The text below walks through data of US20170129961A1 (Amgen, published 2017).

In assay [1] the target is T1, human CD70 (human, UniProt P32970 1-193).
T1 construct: also called hu CD70; CD27L
T1 sequence: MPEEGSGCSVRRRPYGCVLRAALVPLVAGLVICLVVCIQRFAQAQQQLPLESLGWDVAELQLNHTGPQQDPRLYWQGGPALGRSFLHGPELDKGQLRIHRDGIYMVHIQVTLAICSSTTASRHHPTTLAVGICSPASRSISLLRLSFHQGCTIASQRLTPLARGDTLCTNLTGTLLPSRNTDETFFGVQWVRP
As to the kind of experiment: FACS on CHO cells, periplasmic scFv.
Procedure: (§1) All antibodies were diluted in PBS/1.5% FCS. As negative control, cells were incubated with PBS/2% FCS instead of the periplasmic extract. The samples were measured by flow cytometry.

Assay [2] has as its target T2, full-length mouse CD70 with C-terminal V5 tag (mouse, UniProt O55237 1-195).
T2 construct: On transfected CHO cells; also called murine CD70
T2 sequence: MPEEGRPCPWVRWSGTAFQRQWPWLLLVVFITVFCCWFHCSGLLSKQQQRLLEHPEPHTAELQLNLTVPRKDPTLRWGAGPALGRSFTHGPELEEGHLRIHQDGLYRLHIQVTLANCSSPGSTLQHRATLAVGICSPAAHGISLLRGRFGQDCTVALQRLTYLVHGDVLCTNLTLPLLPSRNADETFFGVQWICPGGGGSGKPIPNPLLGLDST
As to the kind of experiment: FACS on CHO cells, periplasmic scFv.
Procedure: as §1

Where a chain is given by its changes, count along the chain named.

B1: CD70-20 (scFv)
scFv: EVQLLESGGGLVQPGGSLRLSCAASGFTFSTYAMSWVRQAPGKGLEWVSLISGSGGRTYYADSVKGRFTISRDNSKNTLYLQMNSLRAEDTAVYYCAKHDYSNYPYFDYWGQGTLVTVSSGGGGSGGGGSGGGGSEIVLTQSPGTLSLSPGERATLSCRASQGVRSDYLAWYQQKPGQALRLLIYGASSRATGIPDRFSGSGSGTDFTLTISRLEPEDFAVYHCQQYGSTPPTFGGGTKLEIK
notes: As m32
In the case of B1, the binding result is recorded as “binds” in assay [1] and “no binding” in assay [2].

B2: CD70-21 (scFv)
scFv: EVQLLESGGGMVQPGGSLRLSCAASGFTFSTYAMSWVRQAPGKGLEWVSAISGSGGRTFYADSVEGRFTISRDNSKNTLYLQMNSLRAEDTAVYYCAKHDYSNYPYFDYWGQGTLVTVSSGGGGSGGGGSGGGGSEIVLTQSPGTLSLSPGERATLSCRASQSVRSTYLAWYQQKPGQAPRLLIYGASSRATGIPDRFSGSGSGTDFTLTISRLEPEDFAVYSCQQYGDLPFTFGPGTKLEIK
notes: As m32
Consider B2, for which the binding result in assay [1] is listed as “binds”; in assay [2], “no binding”.

B3: CD70-23 (scFv)
scFv: EVQLLESGGGLVQPGGSLRLSCAASGFTFSVYAMSWVRQAPGKGLEWVSTISDSGGSTFYADSVKGRFTISRDNSKNTLYLQMNRLRAEDTAVYYCARHDYSNYAYFDYWGQGTLVTVSSGGGGSGGGGSGGGGSEIVLTQSPGTLSLSPGERATLSCRASQSVRSSYLAWYQQKPGQAPRLLIYGASSRATGIPDRFSGSGSGTDFTLTISRLEPEDFAVYYCQQYGDLPFTFGPGTKVEIK
notes: As m32
For the molecule B3, the binding result in assay [1] is on record as “binds”; in assay [2] it was “no binding”.

B4: CD70-41 (scFv)
scFv: B2 scFv with T31S, A97T, T167S, S223Y, L240V, E241D
notes: As m32
As to B4, the binding result was “binds” in assay [1] and “no binding” in assay [2].

B5: CD70-32 (scFv)
scFv: B1 scFv with L11M, T31S, L50A, Y59F, K65E, A97T, L180P, L240V
notes: As m32
Consider B5, for which the binding result is “binds” in assay [1] and “no binding” in assay [2].

B6: CD70-39 (scFv)
scFv: B2 scFv with M11V, G16R, T31S, R57G, K98R, Q112L, T167S, L240V
notes: As m32
On to B6, for which the binding result in assay [1] is “binds”; in assay [2], “no binding”.

B7: CD70-27 (scFv)
scFv: B2 scFv with M11L, R57G, E65K, V164I, T167N, S223Y, D229S, L230S, L240V
notes: As m32
On to B7, for which the binding result in assay [1] is recorded as “binds”; in assay [2], “no binding”.

B8: CD70-24 (scFv)
scFv: B3 scFv with V12A, V31S, T50A, D53G, R85S, Y95F, R98K, A105P
notes: As m32
In the case of B8, the binding result in assay [1] is “binds”; in assay [2], “no binding”.

B9: CD70-38 (scFv)
scFv: EVQLLESGGGVVQPGRSLRLSCAASGFTFSSYAMSWVRQAPGKGLEWVSAISGSGGRTFYADSVEGRFTISRDNSKNTLYLQMNSLRAEDTAVYYCAKHDYSNYPYFDYWGQGTLVTVSSGGGGSGGGGSGGGGSEIVLTQSPGTLSLSPGERATLSCRASQSIRSNYLAWYQQKPGQAPRLLIYGASSRATGIPDRFSGSGSGTDFTLTISRLEPEDFAVYYCQQYGSSPPSFGQGTKVEIK
notes: As m32
Consider B9, for which the results for the binding result in assay [1] and in assay [2] were “binds” and “no binding”, respectively.

B10: CD70-28 (scFv)
scFv: B1 scFv with G163S, D167N, L180P, S189N, H223S, S229I, T230S, L240V
notes: As m32
With B10, the binding result in assay [1] is reported as “binds”; in assay [2], “no binding”.

B11: CD70-40 (scFv)
scFv: B2 scFv with T31S, V164I, T167S, S223Y, L240V, E241D
notes: As m32
With B11, the binding result in assay [1] was “binds”; in assay [2] it was “no binding”.

B12: CD70-36 (scFv)
scFv: EVQLLESGGGLVQPGGSLRLSCAASGFTFSSYAMSWVRQAPGQGLEWVSAISGSGGRTYYADSVKGRFTISRDNSKNTLYLQMNSLRAEDTAVYYCAKHDYSNYPYFDYWGQGTLVTVSSGGGGSGGGGSGGGGSEIVLTQSPGTLSLSPGERATLSCRASQSVRGSYLAWYQQKPGQAPRLLIYSASSRATGIPDRFSGSGSGTDFTLTISRLEPEDFAVYYCQQYGDSPFTFGPGTKVEIK
notes: As m32
Turning to B12, the binding result in assay [1] is recorded as “binds”; in assay [2], “no binding”.

B13: CD70-54 (scFv)
scFv: B3 scFv with V31I, T50A, S52G, R85S, R98K, A105P, L169V, K239R, V240L
notes: As m32
For the molecule B13, the values for the binding result in assay [1] and in assay [2] were “binds” and “no binding”, respectively.

B14: CD70-25 (scFv)
scFv: B2 scFv with T31S, T167N, S223Y, L240V
notes: As m32
Take B14: the binding result in assay [1] was “binds”; in assay [2], “no binding”.

B15: CD70-66 (scFv)
scFv: B12 scFv with G44C, P236C
notes: As m32
Take B15: the values for the binding result in assay [1] and in assay [2] were “binds” and “no binding”, respectively.

B16: CD70-42 (scFv)
scFv: B1 scFv with D167S, L180P, S212N, H223Y, T230S, L240V, E241D
notes: As m32
B16: the binding result in assay [1] is listed as “binds”; in assay [2] it was “no binding”.

B17: CD70-74 (scFv)
scFv: B12 scFv with Q43K, R57S, Y59F, K65Q, M83V, K98R, S167N, S186G, D229Y, E241D
notes: As m32
In the case of B17, the binding result in assay [1] is recorded as “binds”; in assay [2] it was “no binding”.

B18: CD70-43 (scFv)
scFv: B9 scFv with I164V, S212N, S233T, Q236G, E241D
notes: As m32
Regarding B18, the binding result is listed as “binds” in assay [1] and “no binding” in assay [2].

B19: CD70-33 (scFv)
scFv: EVQLLESGGGLVQPGGSLRLSCAASGFTFSTYAMSWVRQAPGKGLEWVSTISDSGGSTFYADSVMGRFTISRDNSKNTLYLQMNSLRAEDTAVYYCARHDYSNYAFFDYWGQGTLVTVSSGGGGSGGGGSGGGGSEIVLTQSPATLSVSPGERATLSCRASQSVSSNLAWYQQKPGQAPRLLIYGASSRATGIPDRFSGSGSGTDFTLTISSLQAEDVAVYYCQQYYSTPFTFGPGTKVEIK
notes: As m32
As for B19, the binding result is “binds” in assay [1] and “no binding” in assay [2].

B20: CD70-34 (scFv)
scFv: B19 scFv with S188T, D195A, D205E, T209A, S212R, Q214E, A215P, V218F, P235G
notes: As m32
Regarding B20, the values for the binding result in assay [1] and in assay [2] were “binds” and “no binding”, respectively.

B21: CD70-29 (scFv)
scFv: EVQLLESGGGLVQPGGSLRLSCAASGFNFASYAMSWVRQAPGKGLEWVSVISGSGGRTHYADSGKGRFTISRDNSKNTLYLQMNSLRAEDTAVYYCAKHDYSNYPYFDYWGQGTLVTVSSGGGGSGGGGSGGGGSEIVLTQSPGTLSLSPGERATLSCRASQSVRSSYLAWYQQKPGQAPRLLIFGASSRATGIPDRFSGSESGTDFTLTINRLEPEDFAVYYCEQYGNSPPTFGGGTKVEIK
notes: As m32
Turning to B21, the binding result in assay [1] is “binds”; in assay [2] it was “no binding”.
